Measurements from patent US20260265391A1 (BIOTHEUS, published 2026).

How the values were obtained:
[1] = biological target: T1, cynomolgus CD40-Fc protein (cynomolgus, UniProt G7PG38 21-193); assay: BLI (ForteBio), CD40-Fc on AHQ sensor, 100 nM Fab in solution, monovalent, 1:1 model
T1 construct: not shown: Fc part
Procedure: (§1) The antigen-loaded sensor was incubated with 100 nM Fab solution until a plateau was reached, and then the sensor was transferred to the analysis buffer for at least 2 minutes for dissociation rate measurement. Kinetic analysis was performed using a 1:1 binding model.

[2] = biological target: T2, human CD40-Fc protein (human, UniProt P25942 21-193); assay: as above
T2 construct: also called human CD40-Fc fusion protein; CD40-Fc antigen; not shown: Fc part
Procedure: as §1

[3] = biological target: T3, human CD40 overexpressed on cells (human, UniProt P25942 21-277); assay: flow cytometry on CHO-S cells overexpressing human CD40
T3 construct: Cells transfected with human CD40 cDNA; also called CHO-huCD40 cells; CHO-S cells overexpressing human CD40
Procedure: (§2) Specifically, by transfecting the pCHO1.0 vector (Invitrogen) with the human/cynomolgus CD40 cDNA cloned into the MCS and followed by applying pressure selection, CHO-S cells overexpressing human/cynomolgus CD40 were generated. The expanded CD40 overexpressing cells were adjusted to the appropriate cell density and plated on 96-well flow plate. After centrifugation, the cells were incubated with a gradient-diluted sample at 4° C. for 30 minutes. and the cells were then washed twice with PBS, and followed by incubation with a fluorescent secondary antibody diluted to the appropriate concentration, at 4° C. for 30 min. Following two washes with PBS, cells were resuspended in PBS and fluorescent signals were detection on the CytoFlex flow cytometer to calculate the corresponding MFI.

[4] = biological target: T4, cynomolgus CD40 overexpressed on CHO-S cells (cynomolgus, UniProt G7PG38 21-278); assay: flow cytometry on CHO-S cells overexpressing cynomolgus CD40
T4 construct: whole, on cells; also called cynomolgus CD40 expressing CHO cells
Procedure: as §2

[5] = biological target: T1, cynomolgus CD40-Fc protein; assay: BLI (ForteBio), IgG on AHQ sensor, 100 nM CD40-Fc in solution, bivalent, 1:1 model
Procedure: (§3) The antibody-loaded sensor was further incubated in a high concentration of irrelevant intact antibody solution for 10 minutes to saturate and block the Fc binding sites on the AHQ sensor. The blocked sensor was then incubated with 100 nM CD40-Fc antigen until a plateau was reached, and then the sensor was transferred to the analysis buffer for at least 2 minutes for dissociation rate measurement. Kinetic analysis was performed using a 1:1 binding model.

[6] = biological target: T2, human CD40-Fc protein; assay: as above
Procedure: as §3

T2 sequence (P25942 21-193 limits assumed): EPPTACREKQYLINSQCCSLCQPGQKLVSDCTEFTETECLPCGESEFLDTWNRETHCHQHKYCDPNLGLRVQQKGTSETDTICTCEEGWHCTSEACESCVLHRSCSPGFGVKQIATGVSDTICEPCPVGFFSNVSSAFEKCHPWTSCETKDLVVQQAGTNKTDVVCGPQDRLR
T3 sequence (P25942 21-277 limits assumed): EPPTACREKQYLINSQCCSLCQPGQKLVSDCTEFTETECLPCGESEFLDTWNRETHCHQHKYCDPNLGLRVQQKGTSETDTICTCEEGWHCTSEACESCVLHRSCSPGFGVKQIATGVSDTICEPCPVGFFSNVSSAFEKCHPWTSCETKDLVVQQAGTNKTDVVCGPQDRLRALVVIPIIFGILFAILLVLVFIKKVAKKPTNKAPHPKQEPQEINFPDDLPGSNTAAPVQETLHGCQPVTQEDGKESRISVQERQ

Binder | Kd [1] [nM] | Kd [2] [nM] | EC50 [3] [nM] | EC50 [4] [nM] | Kd [5] [nM] | Kd [6] [nM]
ADI-55136 Fab (Fab, V domains shown) VH: QVQLVESGGGVVQPGRSLRLSCAASGFTFSSYGMHWVRQAPGKGLEWVAVISYHASSKYYADSVKGRFTISRDNSKNTLYLQMNSLRAEDTAVYYCARDTSRGHDIWGQGTMVTVSS VL: EIVLTQSPGTLSLSPGERATLSCRASQSVSSSYLAWYQQKPGQAPRLLIYGASSRATGIPDRFSGSGSGTDFTLTISRLEPEDFAVYYCQQYADYPPFTFGGGTKVEIK | 78.1 |  |  |  |  | 
ADI-55145 Fab (Fab, V domains shown) VH: QVQLVESGGGVVQPGRSLRLSCAASGFTFEKYGMHWVRQAPGKGLEWVAVISYEGTSKYYADSVKGRFTISRDNSKNTLYLQMNSLRAEDTAVYYCARDTSRGHDIWGQGTMVTVSS VL: EIVLTQSPGTLSLSPGERATLSCQASQSVSYNYLAWYQQKPGQAPRLLIYGASSRNNGIPDRFSGSGSGTDFTLTISRLEPEDFAVYYCQQYSDYPPFTFGGGTKVEIK | 5.72 | 5.88 |  |  |  | 
ADI-55144-2 (antibody, human IgG1, kappa, V domains shown) VH: QVQLVESGGGVVQPGRSLRLSCAASGFTFEKYGMHWVRQAPGKGLEWVAVISYEGTKKYYAESVKGRFTISRDNSKNTLYLQMNSLRAEDTAVYYCARDTSRGHDIWGQGTMVTVSS VL: EIVLTQSPGTLSLSPGERATLSCRASQSVSYSYLAWYQQKPGQAPRLLIYGASSLATGIPDRFSGSGSGTDFTLTISRLEPEDFAVYYCQQYSDYPPFTFGGGTKVEIKR |  |  | 11.5 | 15 |  | 
ADI-55136 (antibody, human IgG1, kappa, V domains shown) VH: QVQLVESGGGVVQPGRSLRLSCAASGFTFSSYGMHWVRQAPGKGLEWVAVISYHASSKYYADSVKGRFTISRDNSKNTLYLQMNSLRAEDTAVYYCARDTSRGHDIWGQGTMVTVSS VL: EIVLTQSPGTLSLSPGERATLSCRASQSVSSSYLAWYQQKPGQAPRLLIYGASSRATGIPDRFSGSGSGTDFTLTISRLEPEDFAVYYCQQYADYPPFTFGGGTKVEIKR |  |  |  | 4.83 | 0.383 | 
ADI-55147 Fab (Fab, V domains shown, also called Fab fragment of ADI-55147) VH: QVQLVESGGGVVQPGRSLRLSCAASGFTFGSYGMHWVRQAPGKGLEWVAVISYEGVKKYYADSVKGRFTISRDNSKNTLYLQMNSLRAEDTAVYYCARDTSRGHDIWGQGTMVTVSS VL: EIVLTQSPGTLSLSPGERATLSCRASQSVSYDYLAWYQQKPGQAPRLLIYGASARANGIPDRFSGSGSGTDFTLTISRLEPEDFAVYYCQQYADYPPFTFGGGTKVEIK | 8.87 | 8.67 |  |  |  | 
ADI-55144 (antibody, human IgG1, kappa, V domains shown) VH: QVQLVESGGGVVQPGRSLRLSCAASGFTFEKYGMHWVRQAPGKGLEWVAVISYEGTKKYYADSVKGRFTISRDNSKNTLYLQMNSLRAEDTAVYYCARDTSRGHDIWGQGTMVTVSS VL: EIVLTQSPGTLSLSPGERATLSCRASQSVSYSYLAWYQQKPGQAPRLLIYGASSLATGIPDRFSGSGSGTDFTLTISRLEPEDFAVYYCQQYSDYPPFTFGGGTKVEIKR |  |  |  |  | 0.19 | 0.11
ADI-55140 (antibody, human IgG1, kappa, V domains shown) VH: QVQLVESGGGVVQPGRSLRLSCAASGFTFEKYGMHWVRQAPGKGLEWVAVIHYEGSIKYYADSVKGRFTISRDNSKNTLYLQMNSLRAEDTAVYYCARDTSRGHDIWGQGTMVTVSS VL: EIVLTQSPGTLSLSPGERATLSCRASQSVSYDYLAWYQQKPGQAPRLLIYGASTRANGIPDRFSGSGSGTDFTLTISRLEPEDFAVYYCGEYADYPPFTFGGGTKVEIKR |  |  | 6.3 | 8.53 | 0.23 | 0.168
ADI-55140 Fab (Fab, V domains shown) VH: QVQLVESGGGVVQPGRSLRLSCAASGFTFEKYGMHWVRQAPGKGLEWVAVIHYEGSIKYYADSVKGRFTISRDNSKNTLYLQMNSLRAEDTAVYYCARDTSRGHDIWGQGTMVTVSS VL: EIVLTQSPGTLSLSPGERATLSCRASQSVSYDYLAWYQQKPGQAPRLLIYGASTRANGIPDRFSGSGSGTDFTLTISRLEPEDFAVYYCGEYADYPPFTFGGGTKVEIK | 5.42 | 5.77 |  |  |  | 
ADI-55144 Fab (Fab, V domains shown) VH: QVQLVESGGGVVQPGRSLRLSCAASGFTFEKYGMHWVRQAPGKGLEWVAVISYEGTKKYYADSVKGRFTISRDNSKNTLYLQMNSLRAEDTAVYYCARDTSRGHDIWGQGTMVTVSS VL: EIVLTQSPGTLSLSPGERATLSCRASQSVSYSYLAWYQQKPGQAPRLLIYGASSLATGIPDRFSGSGSGTDFTLTISRLEPEDFAVYYCQQYSDYPPFTFGGGTKVEIK | 2.21 | 2.08 |  |  |  | 
ADI-55142 Fab (Fab, V domains shown) VH: QVQLVESGGGVVQPGRSLRLSCAASGFTFEKYGMHWVRQAPGKGLEWVAVISYEGEKKYYADSVKGRFTISRDNSKNTLYLQMNSLRAEDTAVYYCARDTSRGHDIWGQGTMVTVSS VL: EIVLTQSPGTLSLSPGERATLSCRASQSVSYSYLAWYQQKPGQAPRLLIYGASSRANGIPDRFSGSGSGTDFTLTISRLEPEDFAVYYCSDYADYPPFTFGGGTKVEIK | 2.81 | 2.74 |  |  |  | 
ADI-55168 (antibody, human IgG1, kappa, V domains shown) VH: EVQLVESGGGLVQPGRSLRLSCAASGFTFDTYAMHWVRQAPGKGLEWVSGISWSSGSIHYADSVKGRFTISRDNAKNSLYLQMNSLRAEDTAVYYCAKDPTATTGARGYFDLWGRGTLVTVSS VL: DIQMTQSPSSVSASVGDRVTITCEASQVISSWLAWYQQKPGKAPKLLIYAASYLQSGVPSRFSGSGSGTDFTLTISSLQPEDFATYYCQQHSSFPPTFGGGTKVEIKR |  |  | 4.73 | 8.85 | 0.122 | 0.111
ADI-55168 Fab (Fab, V domains shown) VH: EVQLVESGGGLVQPGRSLRLSCAASGFTFDTYAMHWVRQAPGKGLEWVSGISWSSGSIHYADSVKGRFTISRDNAKNSLYLQMNSLRAEDTAVYYCAKDPTATTGARGYFDLWGRGTLVTVSS VL: DIQMTQSPSSVSASVGDRVTITCEASQVISSWLAWYQQKPGKAPKLLIYAASYLQSGVPSRFSGSGSGTDFTLTISSLQPEDFATYYCQQHSSFPPTFGGGTKVEIK | 0.586 | 0.988 |  |  |  | 
ADI-47720 Fab (Fab, V domains shown) VH: EVQLVESGGGLVQPGRSLRLSCAASGFTFDDYAMHWVRQAPGKGLEWVSGISWSSGSIGYADSVKGRFTISRDNAKNSLYLQMNSLRAEDTAVYYCAKDPTATTGARGYFDLWGRGTLVTVSS VL: DIQMTQSPSSVSASVGDRVTITCRASQGISSWLAWYQQKPGKAPKLLIYAASSLQSGVPSRFSGSGSGTDFTLTISSLQPEDFATYYCQQRASFPPTFGGGTKVEIK | 263 | 152 |  |  |  | 
ADI-55164 Fab (Fab, V domains shown, also called Fab fragment of ADI-55164) VH: EVQLVESGGGLVQPGRSLRLSCAASGFTFDDYAMHWVRQAPGKGLEWVSGISWSSDSIHYADSVKGRFTISRDNAKNSLYLQMNSLRAEDTAVYYCAKDPTATTGARGYFDLWGRGTLVTVSS VL: DIQMTQSPSSVSASVGDRVTITCRASKVISSWLAWYQQKPGKAPKLLIYAASYLESGVPSRFSGSGSGTDFTLTISSLQPEDFATYYCQQHSSFPPTFGGGTKVEIK | 0.72 | 0.663 |  |  |  | 
ADI-55164 (antibody, human IgG1, kappa, V domains shown) VH: EVQLVESGGGLVQPGRSLRLSCAASGFTFDDYAMHWVRQAPGKGLEWVSGISWSSDSIHYADSVKGRFTISRDNAKNSLYLQMNSLRAEDTAVYYCAKDPTATTGARGYFDLWGRGTLVTVSS VL: DIQMTQSPSSVSASVGDRVTITCRASKVISSWLAWYQQKPGKAPKLLIYAASYLESGVPSRFSGSGSGTDFTLTISSLQPEDFATYYCQQHSSFPPTFGGGTKVEIKR |  |  | 5.47 | 8.06 | 0.117 | 0.1
ADI-47741 (antibody, human IgG1, kappa, V domains shown) VH: QVQLQESGPGLVKPSETLSLTCTVSGGSISSYYWSWIRQPPGKGLEWIGSIYYSGSTNYNPSLKSRVTISVDTSKNQFSLKLSSVTAADTAVYYCARDANYYKWHPYWGQGTLVTVSS VL: EIVLTQSPGTLSLSPGERATLSCRASQSVSSDYLAWYQQKPGQAPRLLIYGASSRATGIPDRFSGSGSGTDFTLTISRLEPEDFAVYYCQQVLSYPPTFGGGTKVEIKR |  |  |  | 17.9 | 0.559 | 
ADI-47741 Fab (Fab, V domains shown) VH: QVQLQESGPGLVKPSETLSLTCTVSGGSISSYYWSWIRQPPGKGLEWIGSIYYSGSTNYNPSLKSRVTISVDTSKNQFSLKLSSVTAADTAVYYCARDANYYKWHPYWGQGTLVTVSS VL: EIVLTQSPGTLSLSPGERATLSCRASQSVSSDYLAWYQQKPGQAPRLLIYGASSRATGIPDRFSGSGSGTDFTLTISRLEPEDFAVYYCQQVLSYPPTFGGGTKVEIK | 71 |  |  |  |  | 
